Values belong to the molecule of their own block, whether it stands above or below them.
How the values were obtained:
[1] = biological target: Myo4/2p (Myo4 motor - Myo2 IQ + C-tail) (S. cerevisiae) (UniProt P32492); test: cross-linking
[2] = biological target: Myo4p-GFP (S. cerevisiae) (UniProt P32492); test: single-molecule fluorescence intensity and photobleaching
cross-linking = biological target: the molecule itself; test: cross-linking
[3] = biological target: the molecule itself; test: single-molecule fluorescence intensity and photobleaching

stoichiometry N [1]: 2
Molecule: Myo4/2p (Myo4 motor - Myo2 IQ + C-tail) (from UniProt P32492 1-778; P19524 783-1574)

stoichiometry N [2]: > 3
Molecule: Myo4p-GFP (from UniProt P32492 1-1471) (natural protein)

B1: Myo2p (TEV-eluted and actin affinity purified from Myo2p-1/2TAP) (natural protein, S. cerevisiae, UniProt P19524 1-1574, looked up)
chain: MSFEVGTRCWYPHKELGWIGAEVIKNEFNDGKYHLELQLEDDEIVSVDTKDLNNDKDQSLPLLRNPPILEATEDLTSLSYLNEPAVLHAIKQRYSQLNIYTYSGIVLIATNPFDRVDQLYTQDMIQAYAGKRRGELEPHLFAIAEEAYRLMKNDKQNQTIVVSGESGAGKTVSAKYIMRYFASVEEENSATVQHQVEMSETEQKILATNPIMEAFGNAKTTRNDNSSRFGKYLEILFDKDTSIIGARIRTYLLERSRLVYQPPIERNYHIFYQLMAGLPAQTKEELHLTDASDYFYMNQGGDTKINGIDDAKEYKITVDALTLVGITKETQHQIFKILAALLHIGNIEIKKTRNDASLSADEPNLKLACELLGIDAYNFAKWVTKKQIITRSEKIVSNLNYSQALVAKDSVAKFIYSALFDWLVENINTVLCNPAVNDQISSFIGVLDIYGFEHFEKNSFEQFCINYANEKLQQEFNQHVFKLEQEEYVKEEIEWSFIEFNDNQPCIDLIENKLGILSLLDEESRLPAGSDESWTQKLYQTLDKSPTNKVFSKPRFGQTKFIVSHYALDVAYDVEGFIEKNRDTVSDGHLEVLKASTNETLINILEGLEKAAKKLEEAKKLELEQAGSKKPGPIRTVNRKPTLGSMFKQSLIELMNTINSTNVHYIRCIKPNADKEAWQFDNLMVLSQLRACGVLETIRISCAGFPSRWTFEEFVLRYYILIPHEQWDLIFKKKETTEEDIISVVKMILDATVKDKSKYQIGNTKIFFKAGMLAYLEKLRSNKMHNSIVMIQKKIRAKYYRKQYLQISQAIKYLQNNIKGFIIRQRVNDEMKVNCATLLQAAYRGHSIRANVFSVLRTITNLQKKIRKELKQRQLKQEHEYNAAVTIQSKVRTFEPRSRFLRTKKDTVVVQSLIRRRAAQRKLKQLKADAKSVNHLKEVSYKLENKVIELTQNLASKVKENKEMTERIKELQVQVEESAKLQETLENMKKEHLIDIDNQKSKDMELQKTIENNLQSTEQTLKDAQLELEDMVKQHDELKEESKKQLEELEQTKKTLVEYQTLNGDLQNEVKSLKEEIARLQTAMSLGTVTTSVLPQTPLKDVMGGGASNFNNMMLENSDLSPNDLNLKSRSTPSSGNNHIDSLSVDRENGVNATQINEELYRLLEDTEILNQEITEGLLKGFEVPDAGVAIQLSKRDVVYPARILIIVLSEMWRFGLTKQSESFLAQVLTTIQKVVTQLKGNDLIPSGVFWLANVRELYSFVVFALNSILTEETFKNGMTDEEYKEYVSLVTELKDDFEALSYNIYNIWLKKLQKQLQKKAINAVVISESLPGFSAGETSGFLNKIFANTEEYTMDDILTFFNSIYWCMKSFHIENEVFHAVVTTLLNYVDAICFNELIMKRNFLSWKRGLQLNYNVTRLEEWCKTHGLTDGTECLQHLIQTAKLLQVRKYTIEDIDILRGICYSLTPAQLQKLISQYQVADYESPIPQEILRYVADIVKKEAALSSSGNDSKGHEHSSSIFITPETGPFTDPFSLIKTRKFDQVEAYIPAWLSLPSTKRIVDLVAQQVVQDGH
stoichiometry N (cross-linking): 2

B2: Myo2p-GFP (natural protein, S. cerevisiae, UniProt P19524 1-1574, looked up)
chain: B1 chain
stoichiometry N [3]: 2

From paper PMC2064653 (The Journal of Cell Biology, 2007)
